This is an account of results in patent publication US10426871B2, “Nanostructure surface coated medical implants and methods of using the same” (The Regents of the University of California, priority 2007, dated 2019).

A short description of series [1]: Release of proteins from nanotubes into PBS (Micro-BCA). It is filed as physicochemical. Also on record: time point at which all the protein is released from the nanotubes: unit: min. The following applies: for time point at which all the protein is released from the nanotubes: PBS, room temperature, 70 rpm. On the procedure:
In order to release the proteins from the nanotubes, the surfaces were immersed in 500 μl of PBS in a 24-well plate at room temperature with orbital shaking at 70 rpm. 200 μl of samples were taken after specific intervals of time to determine the release kinetics. Samples were collected periodically for up to 120 minutes. The solution was replaced with 200 μl of fresh PBS every time the samples were taken. The samples were analyzed for protein content using a commercially available Micro-BCA assay kit and the concentration was adjusted for dilutions due to replacement of fresh PBS.

The conditions of series [2]: cited from earlier work.
The nature of series [3]: XPS of protein-loaded and protein-adsorbed nanotube surfaces. It is filed as physicochemical. The conditions noted are these: Adsorbed (control). On the procedure:
To evaluate the differences in amounts of protein in nanotubes, X-ray photoelectron spectroscopy (XPS) analysis was carried out. XPS is a surface sensitive technique which can detect changes in surface composition for up to 2-20 atomic layers, depending on the material. Since the nanotubes are approximately 400 nm long, XPS can be used to verify the differences in surface concentrations due to different amounts of BSA and LYS loaded. The loaded nanotube surfaces along with adsorbed surfaces were mounted on an XPS stage. Three spots per sample were analyzed. The analysis was conducted on a SSI S-Probe Monochromatized XPS Spectrometer which uses an Al-Kα-X-ray source (1486.6 eV) with an Omni Focus III small area lens and multichannel detector. A concentric hemispherical analyzer (CHA) was operated in the constant analyzer transmission mode to measure the binding energies of emitted photoelectrons. The binding energy scale was calibrated by the Au4f7/2 peak at 83.9 eV, and the linearity was verified by the Cu3p1/2 and Cu2p3/2 peaks at 76.5 and 932.5 eV respectively. Survey spectra were collected from 0 to 1100 eV with pass energy of 160 eV, and high-resolution C1s spectra were collected for each element detected with pass energy of 10 eV. Survey and high resolution spectra were collected at a 65° take off angle, defined as the angle spanned by the electron path to the analyzer and the sample surface. All spectra were referenced by setting the hydrocarbon C1s peak to 285.0 eV to compensate for residual charging effects. Data for percent atomic composition and atomic ratios were calculated using the manufacturer supplied sensitivity factor.
To evaluate the differences in amounts of protein in nanotubes, X-ray photoelectron spectroscopy (XPS) analysis was carried out. […] LYS and BSA adsorbed surfaces were used as controls. There is a steady increase in N/C ratios with increasing amounts of protein loaded into the nanotubes. A more precise way to characterize protein on the surface is to determine the fraction of C—N and N—C═O peaks in overall C1s peak. The C—N and N—C═O peaks are characteristic of proteins which are at a shift of 0.8 eV and 1.8 eV respectively from the C—C peak (285 eV). Thus, high resolution C1s scans were taken and the peak fit analysis software provided with the XPS instrument was used to determine % of C—N and N—C═O in the overall C1s peak (Table 3). A convolution of Gaussian components was assumed for all the peaks. There is an increase in the intensity for the […], C—N and N—C═O peaks with increasing amounts of proteins loaded into the nanotubes.

On to “Lysozyme: model protein, smaller in size with net positive charge, loaded into titania nanotubes”, for which, in series [1], the “release from the nanotubes compared to that of BSA (in words)” value was “much slower”. Further, the “time point at which all the protein is released from the nanotubes” value (“time point” below) in series [1] (200 μg loaded) is listed as 36. In addition, in series [1] (400 μg loaded), the “time point” value is recorded as 85. Moreover, in series [1] (800 μg loaded), the “time point” value worked out at 110. The “Net charge @ pH 7.0” value in series [2] is given as “+7”. For the same substance, in series [3], the “C—C fraction of overall C1s peak (high resolution XPS)” value was 0.73, the “C—N fraction of overall C1s peak (high resolution XPS)” value turned out to be 0.22, the “N/C ratio (XPS survey scan)” value was 0.215 and the “N—C═O fraction of overall C1s peak (high resolution XPS)” value was 0.03.

Turning to “Bovine Serum Albumin: model protein, larger molecule with net negative charge, loaded into titania nanotubes”, the “time point” value in series [1] (200 μg loaded) was found to be 25. In series [1] (400 μg loaded), the “time point” value turned out to be 50. Further, in series [1] (800 μg loaded), the “time point” value was 65. Further, the “Net charge @ pH 7.0” value in series [2] is −18. In series [3], the “C—C fraction of overall C1s peak (high resolution XPS)” value came out at 0.81, the “C—N fraction of overall C1s peak (high resolution XPS)” value turned out to be 0.11, the “N/C ratio (XPS survey scan)” value is on record as 0.123 and the “N—C═O fraction of overall C1s peak (high resolution XPS)” value was found to be 0.08.
